Experimental findings from US20160194388A1 (WASHINGTON UNIVERSITY, published 2016) are described below.

Experiment [1] has as its target T1, human 14-3-3 epsilon isoform 1 (human, UniProt P62258 1-255).
T1 construct: Endogenous protein of H23 human lung cancer cells; Mass spectrometry of the about 27 kDa band identified it as 14-3-3 epsilon, 255 amino acids; also called 14-3-3 protein epsilon; YWHAE
T1 sequence: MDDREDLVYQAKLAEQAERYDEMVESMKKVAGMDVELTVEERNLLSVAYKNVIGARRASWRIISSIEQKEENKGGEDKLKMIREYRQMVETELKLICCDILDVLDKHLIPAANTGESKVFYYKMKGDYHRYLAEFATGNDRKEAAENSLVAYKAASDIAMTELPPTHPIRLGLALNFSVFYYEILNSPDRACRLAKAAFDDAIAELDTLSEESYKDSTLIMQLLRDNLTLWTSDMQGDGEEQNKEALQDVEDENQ
In words: FMAT on H23 cells, hybridoma supernatant.

Experiment [2] addresses T2, peptide comprising amino acids 177-194 of 14-3-3 epsilon isoform 1 (human).
T2 construct: Synthetic 18-mer (Sigma), coated on the ELISA plate
T2 peptide: FSVFYYEILNSPDRACRL
In words: ELISA, peptide coated, 7D4 at 5 µg/ml. The procedure:
(§1) Two batches of purified anti 14-3-3 epsilon monoclonal antibody 7D4 were used for testing all 31 peptides by ELISA. Three concentrations of each peptide had been used for coating ELISA plate at 30, 15, 10 μg/mL, 50 μl/each well were reacted against diluted purified antibodies at same concentration in all assay. Similar results were obtained for each peptide concentration coated on the ELISA plate.
(§2) Human 14-3-3 Protein epsilon and its isoform SV whole amino acid sequences were obtained through UniProtKB/Swiss-Prot. The Taxonomic identifier 9606 (NCBI) organism is Homosapiens (Human), Gene name is YWHAE. Peptide designed from whole sequences of 14-3-3 protein epsilon and its isoform 14-3-3 protein epsilon SV. The designed peptides contain 18AA from N terminal to C terminal and had 2AA overlapped in each peptide. A total of 31 peptides synthesized by Sigma. The synthesized peptide was prepared in DMSO and then further diluted in PBS for coating an ELISA plate. 30 μg/ml and 10 μg/ml of peptides in PBS were coated on ELISA plates, 50 μL/well. The plates incubated overnight at 4° C., were washed with 0.1% Tween20 PBS and blocked with 3% BSA in same buffer for 1 hour. […] After washing again, substrate ABTS was added to each well to monitor color change by reading at 405 nm in an ELISA reader (Bio-Tek Instrument Inc.). […]

Experiment [3] concerns the target T3, peptide comprising amino acids 145-162 of 14-3-3 epsilon SV (human).
T3 construct: Synthetic 18-mer (Sigma), coated on the ELISA plate
T3 peptide: HPIRLGLALNFSVFYYEI
In words: ELISA, peptide coated, 7D4 at 5 µg/ml. The procedure: as §1, §2

Experiment [4] addresses T1, human 14-3-3 epsilon isoform 1. The experiment can be described thus: flow cytometry on H23 cells. As for the experimental part: H23 cells were treated with radiation, 3Gy×3 or 0Gy sham. Cells were then treated with blocking buffer followed by the addition of the 7D4 anti-14-3-3 epsilon monoclonal antibody. Cells were then washed and stained with the secondary antibody conjugated to the fluorescent marker Alexa Fluor 488. Commercial rabbit anti-human 14-3-3 epsilon antibody was used as positive control. Negative controls included 7D4 without secondary antibody and normal mouse IgG with secondary antibody. Shown in FIG. 5 is the percentage of cells staining positive with the anti-14-3-3 antibodies as measured by flow cytometry (FACS).

B1: anti-14-3-3 epsilon mouse monoclonal antibody 7D4 (antibody, V domains shown)
VH: QVQLQQSGAELMKPGASVKISCKATGYTFSSYWIEWVKQRPGHGLEWIGEILPGSGSTNYNEKFKGKATFTADTSSNTAYMQLSSLTSEDSAVYYCARSVWLRRDFAYWGQGTLVTVSA
VL: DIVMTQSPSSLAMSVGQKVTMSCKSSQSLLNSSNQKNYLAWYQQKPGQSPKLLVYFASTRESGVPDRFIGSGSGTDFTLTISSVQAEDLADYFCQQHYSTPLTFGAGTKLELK
notes: also called McAb 7D4; 7D4 mAb
With B1, the “fold increase in binding on 3Gy×3 treated against sham 0Gy treated tumor cells” value in experiment [1] was determined as 6 fold. Further, the binding result in experiment [2] and in experiment [3] was “binds” throughout. The “fold increase in the percentage of cells staining positive after 3Gy×3” value in experiment [4] amounted to 20 fold.
